What all share (assay): EMSA
A general note: In EMSA bound probe runs differently from free probe, usually more slowly.

For data set [1], the target named is T1, p73α+30 (UniProt O15350 1-636+P04637:364-393, internal_change).
Data set [2] deals with T2, p73α (UniProt O15350 1-636).
T2 sequence: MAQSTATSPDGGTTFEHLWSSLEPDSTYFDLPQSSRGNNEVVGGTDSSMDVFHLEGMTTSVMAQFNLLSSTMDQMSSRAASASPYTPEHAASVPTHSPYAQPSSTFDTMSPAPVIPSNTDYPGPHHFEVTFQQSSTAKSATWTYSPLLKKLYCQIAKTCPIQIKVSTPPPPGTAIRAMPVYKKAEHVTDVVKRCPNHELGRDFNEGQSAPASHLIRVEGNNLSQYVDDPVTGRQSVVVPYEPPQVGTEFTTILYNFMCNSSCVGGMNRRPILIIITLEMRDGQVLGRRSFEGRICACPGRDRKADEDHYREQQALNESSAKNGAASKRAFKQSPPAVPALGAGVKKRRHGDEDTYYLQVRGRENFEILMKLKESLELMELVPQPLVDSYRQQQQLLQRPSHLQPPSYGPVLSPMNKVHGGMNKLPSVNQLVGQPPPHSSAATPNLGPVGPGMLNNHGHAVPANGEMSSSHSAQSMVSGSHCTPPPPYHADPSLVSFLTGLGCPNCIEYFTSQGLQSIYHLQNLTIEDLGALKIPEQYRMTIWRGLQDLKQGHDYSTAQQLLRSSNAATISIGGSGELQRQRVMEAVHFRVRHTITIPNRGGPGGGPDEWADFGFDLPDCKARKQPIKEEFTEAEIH

In data set [3] the target is T3, p53 (human, UniProt P04637 1-393).
A further data set addresses T4, p73γ (UniProt O15350-3 1-475).
T4 sequence: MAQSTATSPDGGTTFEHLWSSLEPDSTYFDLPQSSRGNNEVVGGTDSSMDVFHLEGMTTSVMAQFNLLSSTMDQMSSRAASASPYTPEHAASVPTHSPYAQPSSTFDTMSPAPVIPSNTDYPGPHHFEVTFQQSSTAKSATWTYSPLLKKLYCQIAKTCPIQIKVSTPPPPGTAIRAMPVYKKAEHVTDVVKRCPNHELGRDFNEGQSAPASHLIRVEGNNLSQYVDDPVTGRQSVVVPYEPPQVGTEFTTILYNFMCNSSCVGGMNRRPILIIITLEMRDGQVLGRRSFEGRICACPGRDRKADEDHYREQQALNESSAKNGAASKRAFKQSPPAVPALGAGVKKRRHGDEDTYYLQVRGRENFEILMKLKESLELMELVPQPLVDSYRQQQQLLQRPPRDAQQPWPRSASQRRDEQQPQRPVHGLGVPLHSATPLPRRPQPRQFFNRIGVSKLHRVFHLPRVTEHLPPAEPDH

The target of data set [4] is T3, p53. The source holds these as a separate data set.
The target in data set [5] is T1, p73α+30. The source holds these as a separate data set.
Another data set has as its target T5, p73δ (UniProt O15350-4 1-403).
T5 sequence: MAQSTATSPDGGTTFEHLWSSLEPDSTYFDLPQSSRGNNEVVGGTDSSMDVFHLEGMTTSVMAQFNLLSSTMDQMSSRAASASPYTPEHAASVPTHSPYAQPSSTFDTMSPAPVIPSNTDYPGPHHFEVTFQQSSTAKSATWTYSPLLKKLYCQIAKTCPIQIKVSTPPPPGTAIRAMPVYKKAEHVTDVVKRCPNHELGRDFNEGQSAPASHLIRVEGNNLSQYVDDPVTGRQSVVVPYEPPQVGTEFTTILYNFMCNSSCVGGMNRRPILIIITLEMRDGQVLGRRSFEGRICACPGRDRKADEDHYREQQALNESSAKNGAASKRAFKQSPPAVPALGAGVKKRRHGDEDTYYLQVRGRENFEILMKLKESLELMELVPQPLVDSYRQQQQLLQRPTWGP

For data set [6], the target named is T2, p73α. The source holds these as a separate data set.
For another data set, the target named is T6, p73β (UniProt O15350-2 1-499).
T6 sequence: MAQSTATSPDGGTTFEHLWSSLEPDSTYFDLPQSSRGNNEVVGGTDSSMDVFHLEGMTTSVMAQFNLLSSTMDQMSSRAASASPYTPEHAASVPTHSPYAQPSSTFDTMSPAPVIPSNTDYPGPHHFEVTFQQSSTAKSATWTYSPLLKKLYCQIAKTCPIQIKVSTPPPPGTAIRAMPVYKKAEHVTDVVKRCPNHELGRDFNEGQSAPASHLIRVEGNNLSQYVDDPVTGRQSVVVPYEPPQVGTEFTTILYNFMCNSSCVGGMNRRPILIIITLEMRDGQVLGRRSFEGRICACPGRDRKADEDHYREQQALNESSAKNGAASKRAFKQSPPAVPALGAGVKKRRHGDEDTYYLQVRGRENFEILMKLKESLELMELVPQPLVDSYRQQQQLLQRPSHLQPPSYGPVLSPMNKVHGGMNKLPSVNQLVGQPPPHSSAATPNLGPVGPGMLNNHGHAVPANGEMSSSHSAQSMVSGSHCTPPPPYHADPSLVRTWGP

The target of data set [7] is T3, p53. The source holds these as a separate data set.
Data set [8] addresses T1, p73α+30. The source holds these as a separate data set.

Like-named read-outs stand apart in the source and are kept apart here.

T3 sequence (P04637 whole entry): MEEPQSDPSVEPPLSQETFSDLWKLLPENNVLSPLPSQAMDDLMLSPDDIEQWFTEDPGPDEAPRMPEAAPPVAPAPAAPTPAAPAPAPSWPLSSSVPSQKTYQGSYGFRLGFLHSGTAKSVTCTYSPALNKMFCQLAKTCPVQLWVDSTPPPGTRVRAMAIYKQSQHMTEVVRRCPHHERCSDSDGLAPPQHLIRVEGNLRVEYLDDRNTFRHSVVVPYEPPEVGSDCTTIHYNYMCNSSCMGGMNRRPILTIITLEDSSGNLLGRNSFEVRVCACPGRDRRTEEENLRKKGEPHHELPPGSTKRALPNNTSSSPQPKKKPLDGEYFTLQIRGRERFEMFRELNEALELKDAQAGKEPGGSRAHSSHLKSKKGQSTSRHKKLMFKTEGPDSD

B1: p21-5' site 28 bp (dsDNA)
DNA 1: TCAGGAACATGTCCCAACATGTTGAGCT
DNA 2: AGCTCAACATGTTGGGACATGTTCCTGA
For the molecule B1, the binding signal with p73α+30 [1] is 1 fold (reference for 66 bp). Moreover, the binding result with p73α [2] and with p53 [3] was “binds” in each case.

B2: p21-5' site 66 bp (dsDNA)
DNA 1: AGCATTGGCTTTCTGGCCATCAGGAACATGTCCCAACATGTTGAGCTCTGGCATAGAAGAGGCGCT
DNA 2: AGCGCCTCTTCTATGCCAGAGCTCAACATGTTGGGACATGTTCCTGATGGCCAGAAAGCCAATGCT
Turning to B2, the binding result with p73α [2], in the data set with p73γ and in the data set with p53 [4] was “binds” in each case. Also, in the data set with p73α+30 [5], the binding signal is ~5 fold vs 28 bp oligonucleotide.

B3: p53 consensus (dsDNA)
DNA 1: GGGTAGACATGCCTAGACATGCCTAAGCTCCC
DNA 2: GGGAGCTTAGGCATGTCTAGGCATGTCTACCC
On to B3, for which the binding result in the data set with p73δ, in the data set with p73α [6], with p73β, in the data set with p53 [7] and in the data set with p73α+30 [8] was “binds” throughout.
